Positions of bridges follow the written chain, without caps; N, C: chain ends. No end group written: not given here.
Legend:
[1] = biological target: T1, Human recombinant TNF-receptor (I) extracellular domain-IgGFc fusion protein (TNFRI-Fc) (human, UniProt P19438 30-211); test: SPR (BIAcore), target immobilised on sensor chip
T1 construct: extracellular domain; not shown: IgG Fc
T1 sequence (looked up): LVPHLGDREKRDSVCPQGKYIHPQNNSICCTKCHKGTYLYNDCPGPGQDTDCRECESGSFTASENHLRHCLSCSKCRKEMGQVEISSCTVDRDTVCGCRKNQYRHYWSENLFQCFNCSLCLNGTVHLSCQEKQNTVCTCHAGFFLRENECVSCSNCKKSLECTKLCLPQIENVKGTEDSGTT
Experimental: (§1) To assess the specificity of Kp7-6 binding interaction, Fas, FasL and TNFα were immobilized on a sensor chip. Kp7-6 bound to FasL but not to TNFα, which indicates Kp7-6 bound to FasL specifically (FIG. 3B). Kp7-6 also bound to Fas (FIG. 3B). […] (Naismith, J. H. et al. Structure 4, 1251-1262 (1996)). […] No significant binding to TNF-R was detected.
(§2) Biosensor analysis. All experiments were carried out on a BIAcore 3000 instrument (Biacore A G, Uppsala, Sweden) at 25° C. using PBS, pH 7.4, containing 0.005% surfactant P20 (Biacore A G) as the running buffer. FasL-Flag, Fas-Fc or TNFRI-Fc was immobilized on research-grade CM5 sensor chips (Biacore AG) using standard N-ethyl-N-dimethylaminopropyl carbodiimid/N-hydroxysuccinimide coupling. Immobilization was performed in 10 mM sodium acetate buffer at pH 4.5 for FasL-Flag and Fas-Fc, and at pH 4.0 for TNFRI-Fc. After coupling, excess N-hydroxysuccinimide groups were inactivated with ethanolamine. For binding studies, about 1500 resonance units (RU) of FasL-Flag, Fas-Fc and TNFRI-Fc were coupled to the chips. Surface plasmon resonance (SPR) measurements were carried out at a flow rate of 20 ml min⁻¹. Data were analyzed with the BIA evaluation 3.0 software (Biacore AG). The sensograms give values for the relative response in resonance units (RU) after background subtraction versus time in seconds. […]

Human recombinant TNFα = biological target: T2, Human recombinant TNFα (human, UniProt P01375 77-233); test: SPR (BIAcore 3000), TNFα immobilised, Kp7-6 in flow; peptide concentration not given
T2 construct: Bought from Roche Diagnostics
T2 sequence (P01375 77-233 limits assumed): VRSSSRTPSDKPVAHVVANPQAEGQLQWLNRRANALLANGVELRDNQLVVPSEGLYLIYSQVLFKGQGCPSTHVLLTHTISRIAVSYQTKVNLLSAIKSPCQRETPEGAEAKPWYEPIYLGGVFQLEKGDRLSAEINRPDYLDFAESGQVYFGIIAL

[2] = biological target: T3, Flag-tagged soluble human Fas ligand (FasL-Flag) (human, UniProt P48023 103-281, limits assumed); test: SPR (BIAcore), FasL-Flag immobilised, Kp7-6 in solution
T3 construct: Bought from Kamiya Biomedical; also called soluble FasL-Flag fusion protein; not shown: Flag tag
T3 sequence (looked up): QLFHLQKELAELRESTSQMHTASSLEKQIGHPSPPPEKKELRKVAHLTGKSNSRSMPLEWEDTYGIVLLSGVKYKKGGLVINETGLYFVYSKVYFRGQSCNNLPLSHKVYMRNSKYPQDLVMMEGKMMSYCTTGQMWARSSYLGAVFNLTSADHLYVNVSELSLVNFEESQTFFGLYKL
Experimental: (§3) The kinetics of binding of Kp7-6, which mediated the best inhibitory activity to FasL, was performed using surface plasmon resonance (BIAcore™) analysis. FasL-Flag was immobilized onto a sensor chip and various solutions containing different concentrations of Kp7-6 were passed over the surface. […] The koff value is considered as an important indicator in the development of therapeutics with biological activity (Benveniste, M. et al. Br J Pharmacol 104, 207-221 (1991); Yiallouros, I. et al. Biochem J 331, 375-379 (1998)), and generally correlates with potent biological effects. (Moosmayer, D. et al. J Interferon Cytokine Res 16, 471-477 (1996)). […] (Berezov, A. et al. J Med Chem 44, 2565-2574 (2001)).
as §2, with “For binding studies, about 1500 resonance units (RU) of FasL-Flag, Fas-Fc and TNFRI-Fc were coupled to the chips. Surface plasmon resonance (SPR) measurements were carried out at a flow rate of 20 ml min⁻¹.” left out, “AG).” for “AG). The sensograms give values for the relative response in resonance units (RU) after background subtraction versus time in seconds.”

[3] = biological target: T3, Flag-tagged soluble human Fas ligand …; test: solid phase ligand binding assay; peptide preincubated with FasL-Flag, inhibition of binding to immobilised Fas-Fc
Experimental: To compare the inhibitory activities of the Kp7 peptide series, dose-response studies were performed. The best activity was found with Kp7-6, which inhibited 50% of the FasL-Flag molecule binding to immobilized Fas-Fc at 150 μM (FIG. 2B).
Solid phase ligand binding assay. Fas-Fc fusion protein (250 ng/ml) diluted in PBS was immobilized onto 96 well ELISA plate (Costar, High Wycombe, UK) by incubating overnight at 4° C. After blocking with PBS containing 1% skim milk overnight at 4° C. and subsequent washing with PBS containing 0.05% Tween 20 (PBS-Tw), Flag-tagged soluble FasL (100 ng/ml)/peptide solution preincubated in PBS containing 1% skim milk for 1 h at 37° C. was added onto the Fas-Fc coated wells. After 2 h incubation at room temperature, the plate was washed with PBS-Tw, and anti-FLAG(M2)-HRP antibody 1:2500 in PBS containing 1% skim milk was added. After 1 h incubation at room temperature, the plate was washed with PBS-Tw, and the enzyme reaction was started by adding the substrate solution (0.1M sodium acetate buffer (pH 5.0) containing 100 μg/ml of TMBZ and 0.005% (v/v) H₂O₂) and stopped with 2N H₂SO₄. The absorbance at 450 nm was measured with an ELISA reader.

[4] = biological target: T3, Flag-tagged soluble human Fas ligand …; test: SPR (BIAcore), FasL-Flag immobilised, Kp7-6 in solution; ratio of rate constants
Experimental: as §3
as §2, with “For binding studies, about 1500 resonance units (RU) of FasL-Flag, Fas-Fc and TNFRI-Fc were coupled to the chips. Surface plasmon resonance (SPR) measurements were carried out at a flow rate of 20 ml min⁻¹.” left out, “AG).” for “AG). The sensograms give values for the relative response in resonance units (RU) after background subtraction versus time in seconds.”

[5] = biological target: T4, human Fas extra cellular domain-IgGFc fusion protein (Fas-Fc) (human, UniProt P25445 26-173); test: SPR (BIAcore 3000), Fas-Fc immobilised, Kp7-6 in flow
T4 construct: extracellular domain; Bought from Kamiya Biomedical; also called soluble Fas receptor; not shown: IgG Fc
T4 sequence (looked up): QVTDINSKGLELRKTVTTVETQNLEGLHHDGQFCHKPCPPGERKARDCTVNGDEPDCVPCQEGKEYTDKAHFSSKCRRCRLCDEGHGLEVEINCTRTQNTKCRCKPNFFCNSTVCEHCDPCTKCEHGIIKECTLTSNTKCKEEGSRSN
Experimental: as §1, §2

binding result [1]: no binding
binding result (Human recombinant TNFα): no binding
koff [2]: 0.000765 s⁻¹
IC50 [3]: 150 µM
Kd [4]: 11.2 µM
binding result [5]: binds
B1: Kp7-6 (peptide)
peptide: YCDEHFCY
modifications: disulfide 2-7
notes: Synthetic exocyclic peptide derived from the Kp7 loop of human Fas (91 CDEGHGL 97); also called Fas mimetic Kp7-6; exocyclic mimetic Kp7-6
